Measurements as given in patent US20200399712A1, “COMPOSITIONS AND METHODS FOR THE DIAGNOSIS AND DETECTION OF TUMORS AND CANCER PROGNOSIS” (priority 2018, published 2020).
Entries after “also recorded” stand apart in the source; their conditions may differ.

Tests used:
HPV-16 genome = assay: qPCR sensitivity against HPV-16 copy number (known-copy HPV-16 DNA among 10 ng normal human DNA)
Excerpt: (§1) All samples were run in triplicates.
To seek the most promising primer-probe set in the viewpoint of sensitivity, Applicants evaluated the sensitivity analysis for these candidate primer-probe sets. […] Therefore, the sensitivity of E6 (FIG. 3A) and E7 (FIG. 3B) was also 30 copies. […] The candidate primer-probe sets were the “Min-4” (FIG. 3C), “Min-5” (FIG. 3D), “Min-6” (FIG. 3E), “Max-10” (FIG. 3F), “E6-11” (FIG. 3G), “E6-13” (FIG. 3H), respectively.
In addition, Applicants performed sensitivity analysis to identify the most sensitive primer/probe set from among the candidate sets.
To validate the function of primer/probe sets, Applicants calculated the slope of delta Rn against cycle threshold for HPV-16 copy number detection from defined HPV copy number DNA derived from CaSki cell line.

HPV-16 [1] = assay: qPCR sensitivity against HPV-HNSCC tumor samples diluted among 10 ng normal human DNA
Description: Quantitative real-time polymerase chain reaction (qRT-PCR) was used to examine the threshold in each experiment. qRT-PCR was performed using Quant Studio 6 Flex Real-Time PCR System (Thermo Fisher Scientific). All samples were run in triplicates. HPV-16 viral amplicon copy number estimations were developed using the CaSki cell line. After amplification of the amplicon by PCR, DNA concentration was calculated by weight NanoDrop®, then converted to DNA copy number by calculation based on the molecular weight of the double stranded amplicon. […] In the other 32 HPV-HNSCC cohort, Applicants diluted the tumor sample to 990 pg, 198 pg, 99 pg, 39.6 pg, 7.9 pg, 3.2 pg, and 1.6 pg of amount tumor weight, (correspond to 150, 30, 15, 6, 1.2, 0.6, and 0.3 cells: assumption that 1 tumor cell have 6.6 pg DNA (=3*10^9 (human DNA genome bp)*2 (diploid)*1.67*10^(−24) g (weight/Dalton))) combined with 10 ng normal leukocyte human DNA and compare the threshold of each primer-probe sets.
In this regard, Applicants investigated the other 32 HPV-HNSCC tumor samples. From the assumption that 1 cell tumor DNA contain 6.6 pg DNA, Applicants made the dilution series by DNA derived from normal lymphocyte as described and decide the threshold for each primer-probe set.
Furthermore, to determine whether these designed primer/probe sets also have a high sensitivity in a separate cohort, Applicants performed PCR in a validation cohort of 32 additional primary tumor samples with validated presence of HPV-16. Applicants prepared serial of dilutions of tumor DNA in normal lymphocyte DNA from non-cancer individuals and determined the threshold for each primer/probe set and defined amplification thresholds expressed in number of tumor cells for each sample (Table 5).

HPV-16 [2] = assay: qPCR on 20 ng DNA from saliva samples of HPV-HNSCC patients; details: 28 HPV-HNSCC saliva samples
Description: as §1
The sensitivity of detection from saliva 20 ng DNA samples is 32.1% (9/28) in E6 primer-probe sets, 42.9% (12/28) in E7 primer-probe sets, 35.7% (10/28) in “Min-5” primer-probe sets, 46.4% (13/28) in “Max-10” primer-probe sets. The sensitivity of combination of “5” and “10” is 50% (14/28) and that of E6 and E7 is 42.9% (12/28). By the standard curve analysis, the copy numbers that detected by “Max-10” primer-probe sets were the highest in these 4 primer-probe sets. The slope of standard curve is −3.5 in “Min-5” primer-probe sets when delta Rn is plotted against cycle threshold (FIG. 5).

[3] = among 10 ng normal DNA, triplicate qPCR
[4] = samples tested 3 times, 10 ng DNA from healthy individual
[5] = tumor DNA dilution, fraction of 32 samples

B1: E6: previously designed (historical) HPV-16 E6 primers and Taqman probe, SEQ ID NO: 7-9, positive control (nucleic acid)
DNA 1: TCAGGACCCACAGGAGCG
DNA 2: CCTCACGTCGCAGTAACTGTTG
DNA 3: CCCAGAAAGTTACCACAGTTATGCACAGAGCT
modifications: Taqman probe, labels not given here
sensitivity (HPV-16 copies) (HPV-16 genome; HPV-16 genome among normal 10 ng DNA samples, consistent triplicate reaction): 30 copies
reaction under 10 copies of HPV-16 genome (HPV-16 genome; [3]): reacted inconsistently
reaction under 30 copies of HPV-16 genome (HPV-16 genome; [3]): reacted consistently triplicate; also recorded: reacted consistently in triplicates
number of reactions against 10 HPV-16 copies (HPV-16 genome; [4]): one
number of reactions under 30 HPV-16 copies (HPV-16 genome; [4]): 3 reactions
sensitivity under 100 cells (HPV-16 [1]; 32 HPV-HNSCC tumor samples): 90.6%
sensitivity under single cells (HPV-16 [1]; 32 HPV-HNSCC tumor samples, 6.6 pg DNA): 12.5%
sensitivity under 10 cells (HPV-16 [1]; 32 HPV-HNSCC tumor samples, 66 pg DNA): 53.1%
Threshold of tumor cell numbers for HPV-16 detection (HPV-16 [1]; Sample # 1): 150.0 tumor cells
Threshold of tumor cell numbers for HPV-16 detection (HPV-16 [1]; Sample # 2): 30.0 tumor cells
Threshold of tumor cell numbers for HPV-16 detection (HPV-16 [1]; Sample # 3): 6.0 tumor cells
Threshold of tumor cell numbers for HPV-16 detection (HPV-16 [1]; Sample # 4): 150.0 tumor cells
Threshold of tumor cell numbers for HPV-16 detection (HPV-16 [1]; Sample # 5): 30.0 tumor cells
Threshold of tumor cell numbers for HPV-16 detection (HPV-16 [1]; Sample # 6): 150.0 tumor cells
Threshold of tumor cell numbers for HPV-16 detection (HPV-16 [1]; Sample # 7): 30.0 tumor cells
Threshold of tumor cell numbers for HPV-16 detection (HPV-16 [1]; Sample # 8): 15.0 tumor cells
Threshold of tumor cell numbers for HPV-16 detection (HPV-16 [1]; Sample # 9): 60.0 tumor cells
Threshold of tumor cell numbers for HPV-16 detection (HPV-16 [1]; Sample # 10): 30.0 tumor cells
Threshold of tumor cell numbers for HPV-16 detection (HPV-16 [1]; Sample # 11): 60.0 tumor cells
Threshold of tumor cell numbers for HPV-16 detection (HPV-16 [1]; Sample # 12): 15.0 tumor cells
Threshold of tumor cell numbers for HPV-16 detection (HPV-16 [1]; Sample # 13): 6.0 tumor cells
Threshold of tumor cell numbers for HPV-16 detection (HPV-16 [1]; Sample # 14): 6.0 tumor cells
Threshold of tumor cell numbers for HPV-16 detection (HPV-16 [1]; Sample # 15): 6.0 tumor cells
Threshold of tumor cell numbers for HPV-16 detection (HPV-16 [1]; Sample # 16): 6.0 tumor cells
Threshold of tumor cell numbers for HPV-16 detection (HPV-16 [1]; Sample # 17): 30.0 tumor cells
Threshold of tumor cell numbers for HPV-16 detection (HPV-16 [1]; Sample # 18): 6.0 tumor cells
Threshold of tumor cell numbers for HPV-16 detection (HPV-16 [1]; Sample # 19): 1.2 tumor cells
Threshold of tumor cell numbers for HPV-16 detection (HPV-16 [1]; Sample # 20): 0.5 tumor cells
Threshold of tumor cell numbers for HPV-16 detection (HPV-16 [1]; Sample # 21): 1.2 tumor cells
Threshold of tumor cell numbers for HPV-16 detection (HPV-16 [1]; Sample # 22): 0.3 tumor cells
Threshold of tumor cell numbers for HPV-16 detection (HPV-16 [1]; Sample # 23): 1.2 tumor cells
Threshold of tumor cell numbers for HPV-16 detection (HPV-16 [1]; Sample # 24): 1.2 tumor cells
Threshold of tumor cell numbers for HPV-16 detection (HPV-16 [1]; Sample # 25): 0.3 tumor cells
Threshold of tumor cell numbers for HPV-16 detection (HPV-16 [1]; Sample # 26): 0.6 tumor cells
Threshold of tumor cell numbers for HPV-16 detection (HPV-16 [1]; Sample # 27): 15.0 tumor cells
Threshold of tumor cell numbers for HPV-16 detection (HPV-16 [1]; Sample # 28): 3.0 tumor cells
Threshold of tumor cell numbers for HPV-16 detection (HPV-16 [1]; Sample # 29): 3.0 tumor cells
Threshold of tumor cell numbers for HPV-16 detection (HPV-16 [1]; Sample # 30): 15.0 tumor cells
Threshold of tumor cell numbers for HPV-16 detection (HPV-16 [1]; Sample # 31): 3.0 tumor cells
Threshold of tumor cell numbers for HPV-16 detection (HPV-16 [1]; Sample # 32): 15.0 tumor cells
Sensitivity, 1 cell (HPV-16 [1]; [5]): 0.125
Sensitivity, 3 cells (HPV-16 [1]; [5]): 0.250
Sensitivity, 10 cells (HPV-16 [1]; [5]): 0.531
Sensitivity, 30 cells (HPV-16 [1]; [5]): 0.844
Sensitivity, 100 cells (HPV-16 [1]; [5]): 0.906
sensitivity of detection from saliva 20 ng DNA samples (HPV-16 [2]): 32.1%
